T1: human ITGa3 protein (human, UniProt P26006 33-991)
T1 chain: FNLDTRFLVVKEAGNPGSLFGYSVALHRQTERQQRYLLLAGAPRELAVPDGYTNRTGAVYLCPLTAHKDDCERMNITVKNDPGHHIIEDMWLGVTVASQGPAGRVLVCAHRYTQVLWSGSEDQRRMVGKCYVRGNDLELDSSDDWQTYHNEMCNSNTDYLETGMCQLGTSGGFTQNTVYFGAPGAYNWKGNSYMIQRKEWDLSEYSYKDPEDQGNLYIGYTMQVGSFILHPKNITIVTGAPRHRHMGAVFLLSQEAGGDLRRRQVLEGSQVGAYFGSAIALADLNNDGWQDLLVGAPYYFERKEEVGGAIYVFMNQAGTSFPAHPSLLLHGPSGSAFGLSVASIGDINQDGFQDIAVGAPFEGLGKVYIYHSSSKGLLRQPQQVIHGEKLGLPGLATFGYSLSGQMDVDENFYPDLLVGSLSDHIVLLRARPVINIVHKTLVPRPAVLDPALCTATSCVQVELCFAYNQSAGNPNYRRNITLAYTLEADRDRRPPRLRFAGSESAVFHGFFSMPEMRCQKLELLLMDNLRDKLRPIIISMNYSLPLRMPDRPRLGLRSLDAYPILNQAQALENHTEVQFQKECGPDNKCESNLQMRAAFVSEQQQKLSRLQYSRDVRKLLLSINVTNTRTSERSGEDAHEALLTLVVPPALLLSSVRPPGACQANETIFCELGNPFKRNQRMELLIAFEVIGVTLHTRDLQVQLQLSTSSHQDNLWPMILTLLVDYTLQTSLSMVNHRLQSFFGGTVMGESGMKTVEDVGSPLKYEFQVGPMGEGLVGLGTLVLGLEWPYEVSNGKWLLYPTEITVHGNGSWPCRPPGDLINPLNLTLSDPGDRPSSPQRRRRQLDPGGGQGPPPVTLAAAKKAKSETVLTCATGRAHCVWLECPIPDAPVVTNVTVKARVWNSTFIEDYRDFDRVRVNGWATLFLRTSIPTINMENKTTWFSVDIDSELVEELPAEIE


Molecular target: T1, human ITGa3 protein
Assay: ELISA; apparent Kd

Row | Binder | Kd
1 | ITGa3-VM2 (antibody, V domains shown) VH: EVQLQESGAELVKPGTSVRLSCKASGYTFTEYIIHWVKQRSGQGLEWIGWFYPESGSVKYNETFKGRATLTADKSSSTVYMELSRLTSEDSAVYFCARHEERDYYGYYAMDYWGQGTSVTVSS VL: DIVMTQTPTTLAASPGEKIIITCSASSSISSNYLHWYQQKPGFSPKLLIYRTSNLASGVPARFSGSGSGTSYSLTIGTMEAEDVATYYCQQGSSIPRFTSGSGTKLEIK | 0.23 nM
2 | Lc1/Hc1S (VH of SEQ ID NO: 4 and VL of SEQ ID NO: 12) (antibody, V domains shown) VH: QVQLVQSGAEVKKPGSSVKVSCKASGYTFTEYIIHWVRQAPGQGLEWIGWFYPESGSVKYSETFKGRATLTADKSTSTAYMELSSLRSEDTAVYYCARHEERDYYGYYAMDYWGQGTTVTVSS VL: DIQMTQSPSSLSASVGDRVIITCSASSSISSNYLHWYQQKPGKVPKLLIYRTSNLASGVPSRFSGSGSGTDYTLTISSLQPEDVATYYCQQGSSIPRFTSGGGTKVEIK | 0.18 nM
3 | Lc1/Hc2S (antibody, V domains shown) VH: QVQLVQSGAEVKKPGSSVKVSCKASGYTFTEYIIHWVRQAPGQGLEWIGWFYPESGSVKYSETFKGRATITADKSTSTAYMELSSLRSEDTAVYYCARHEERDYYGYYAMDYWGQGTTVTVSS VL: DIQMTQSPSSLSASVGDRVTITCSASSSISSNYLHWYQQKPGKVPKLLIYRTSNLASGVPSRFSGSGSGTDYTLTISSLQPEDVATYYCQQGSSIPRFTSGGGTKVEIK | 0.32 nM
4 | Lc2/Hc1 (antibody, V domains shown) VH: QVQLVQSGAEVKKPGSSVKVSCKASGYTFTEYIIHWVRQAPGQGLEWIGWFYPESGSVKYNETFKGRATLTADKSTSTAYMELSSLRSEDTAVYYCARHEERDYYGYYAMDYWGQGTTVTVSS VL: DIQMTQSPSSLSASVGDRVIITCSASSSISSNYLHWYQQKPGKVPKLLIYRTSNLASGVPSRFSGSGSGTDYTLTISSLQPEDVATYYCQQGSSIPRFTSGGGTKVEIK | 0.18 nM
5 | Lc1/Hc2 (antibody, V domains shown) VH: QVQLVQSGAEVKKPGSSVKVSCKASGYTFTEYIIHWVRQAPGQGLEWIGWFYPESGSVKYNETFKGRATITADKSTSTAYMELSSLRSEDTAVYYCARHEERDYYGYYAMDYWGQGTTVTVSS VL: DIQMTQSPSSLSASVGDRVTITCSASSSISSNYLHWYQQKPGKVPKLLIYRTSNLASGVPSRFSGSGSGTDYTLTISSLQPEDVATYYCQQGSSIPRFTSGGGTKVEIK | 0.07 nM
6 | Lc1/Hc1S (antibody, V domains shown) VH: QVQLVQSGAEVKKPGSSVKVSCKASGYTFTEYIIHWVRQAPGQGLEWIGWFYPESGSVKYSETFKGRATLTADKSTSTAYMELSSLRSEDTAVYYCARHEERDYYGYYAMDYWGQGTTVTVSS VL: DIQMTQSPSSLSASVGDRVTITCSASSSISSNYLHWYQQKPGKVPKLLIYRTSNLASGVPSRFSGSGSGTDYTLTISSLQPEDVATYYCQQGSSIPRFTSGGGTKVEIK | 0.18 nM
7 | Lc2/Hc1A (antibody, V domains shown) VH: QVQLVQSGAEVKKPGSSVKVSCKASGYTFTEYIIHWVRQAPGQGLEWIGWFYPESGSVKYNEAFKGRATLTADKSTSTAYMELSSLRSEDTAVYYCARHEERDYYGYYAMDYWGQGTTVTVSS VL: DIQMTQSPSSLSASVGDRVIITCSASSSISSNYLHWYQQKPGKVPKLLIYRTSNLASGVPSRFSGSGSGTDYTLTISSLQPEDVATYYCQQGSSIPRFTSGGGTKVEIK | 0.23 nM
8 | Lc1/Hc1A (antibody, V domains shown) VH: QVQLVQSGAEVKKPGSSVKVSCKASGYTFTEYIIHWVRQAPGQGLEWIGWFYPESGSVKYNEAFKGRATLTADKSTSTAYMELSSLRSEDTAVYYCARHEERDYYGYYAMDYWGQGTTVTVSS VL: DIQMTQSPSSLSASVGDRVTITCSASSSISSNYLHWYQQKPGKVPKLLIYRTSNLASGVPSRFSGSGSGTDYTLTISSLQPEDVATYYCQQGSSIPRFTSGGGTKVEIK | 0.32 nM
9 | Lc1/Hc1 (antibody, V domains shown) VH: QVQLVQSGAEVKKPGSSVKVSCKASGYTFTEYIIHWVRQAPGQGLEWIGWFYPESGSVKYNETFKGRATLTADKSTSTAYMELSSLRSEDTAVYYCARHEERDYYGYYAMDYWGQGTTVTVSS VL: DIQMTQSPSSLSASVGDRVTITCSASSSISSNYLHWYQQKPGKVPKLLIYRTSNLASGVPSRFSGSGSGTDYTLTISSLQPEDVATYYCQQGSSIPRFTSGGGTKVEIK | 0.18 nM
10 | Lc2/Hc2G (antibody, V domains shown) VH: QVQLVQSGAEVKKPGSSVKVSCKASGYTFTEYIIHWVRQAPGQGLEWIGWFYPESGSVKYNEGFKGRATITADKSTSTAYMELSSLRSEDTAVYYCARHEERDYYGYYAMDYWGQGTTVTVSS VL: DIQMTQSPSSLSASVGDRVIITCSASSSISSNYLHWYQQKPGKVPKLLIYRTSNLASGVPSRFSGSGSGTDYTLTISSLQPEDVATYYCQQGSSIPRFTSGGGTKVEIK | 0.18 nM
11 | Lc2/Hc2 (antibody, V domains shown) VH: QVQLVQSGAEVKKPGSSVKVSCKASGYTFTEYIIHWVRQAPGQGLEWIGWFYPESGSVKYNETFKGRATITADKSTSTAYMELSSLRSEDTAVYYCARHEERDYYGYYAMDYWGQGTTVTVSS VL: DIQMTQSPSSLSASVGDRVIITCSASSSISSNYLHWYQQKPGKVPKLLIYRTSNLASGVPSRFSGSGSGTDYTLTISSLQPEDVATYYCQQGSSIPRFTSGGGTKVEIK | 0.1 nM
12 | Lc2/Hc2S (antibody, V domains shown) VH: QVQLVQSGAEVKKPGSSVKVSCKASGYTFTEYIIHWVRQAPGQGLEWIGWFYPESGSVKYSETFKGRATITADKSTSTAYMELSSLRSEDTAVYYCARHEERDYYGYYAMDYWGQGTTVTVSS VL: DIQMTQSPSSLSASVGDRVIITCSASSSISSNYLHWYQQKPGKVPKLLIYRTSNLASGVPSRFSGSGSGTDYTLTISSLQPEDVATYYCQQGSSIPRFTSGGGTKVEIK | 0.24 nM
13 | Lc2/Hc2A (antibody, V domains shown) VH: QVQLVQSGAEVKKPGSSVKVSCKASGYTFTEYIIHWVRQAPGQGLEWIGWFYPESGSVKYNEAFKGRATITADKSTSTAYMELSSLRSEDTAVYYCARHEERDYYGYYAMDYWGQGTTVTVSS VL: DIQMTQSPSSLSASVGDRVIITCSASSSISSNYLHWYQQKPGKVPKLLIYRTSNLASGVPSRFSGSGSGTDYTLTISSLQPEDVATYYCQQGSSIPRFTSGGGTKVEIK | 0.24 nM
14 | Lc1/Hc1G (antibody, V domains shown) VH: QVQLVQSGAEVKKPGSSVKVSCKASGYTFTEYIIHWVRQAPGQGLEWIGWFYPESGSVKYNEGFKGRATLTADKSTSTAYMELSSLRSEDTAVYYCARHEERDYYGYYAMDYWGQGTTVTVSS VL: DIQMTQSPSSLSASVGDRVTITCSASSSISSNYLHWYQQKPGKVPKLLIYRTSNLASGVPSRFSGSGSGTDYTLTISSLQPEDVATYYCQQGSSIPRFTSGGGTKVEIK | 0.23 nM
15 | Lc1/Hc2A (antibody, V domains shown) VH: QVQLVQSGAEVKKPGSSVKVSCKASGYTFTEYIIHWVRQAPGQGLEWIGWFYPESGSVKYNEAFKGRATITADKSTSTAYMELSSLRSEDTAVYYCARHEERDYYGYYAMDYWGQGTTVTVSS VL: DIQMTQSPSSLSASVGDRVTITCSASSSISSNYLHWYQQKPGKVPKLLIYRTSNLASGVPSRFSGSGSGTDYTLTISSLQPEDVATYYCQQGSSIPRFTSGGGTKVEIK | 0.27 nM

— patent US20190309072A1 (published 2019)
